Assay: soluble on expression in E. coli; label from the status in PepcDB or PDB records

Sequence: MNDPLDSLSNDEFEIIETFDPETEDREDQWSIQQSIRIEPISIQMPNTLQSQRAPSPVGSKAPESLKDEDPDRTPEASIVETPLLTETLKEDRTPMSTPLASLVNSSQSPEFTLQNMSIVSESECSNNSSLVNVADVESTEIALRTSLLLVSELKSQLQAAKMSESTLLKSNSNHEIEENKKLSEKMEVMKNEFELKMQESAASVEKVIQEKDSAIEQLKVQLAQSQQVAELWKQGAEKNSNAQYSDSKTTIDRLLEENSKLRNLVDEEVARRLEESERRKLAEDQLKHARGGSVFDPPASFVASQLAERTTYSLNLEHELITLRKELEETKEALKKSVEESSNKDEIVSALHEDQQESTRMLASNEQVINSLKQKCRQLGVLEDFSS
- soluble on expression in E. coli: soluble

Sequence: MSLDSKRYTFLLGPGQSCRTATDNFIALYDKRNSLEIKDIENAFNVEALSKEFFGKYKAQYEAFVNYMVDPTNGMRQHFIDTGFDHTGMAADKIRDREEKPIRDYVKKLLGRIVFLHFLQKKGWLGVPASKEWGEGDRDFMLNIFKNANERQKENFLDDILEDLFTEGLDRNRSDQGDLYDTKVEGFRNCRIPYLNGGLFERDILDKKPSHFPASYFNGLLTMLSQYNFTIDENDPNDAEVGVDPEMLGRIFENLLEDNKDKGAFYTPKEIVQYMCRESLIAYLQTDMREEDKECIRQFVTTHDASQLGELKEYIDQKLYDVKICDPAIGSGAFPMGLLRELFFCRSAIEPNIVENAANIKRHIIQNNIYGVDIERGAVDIARLRFWLSLIVDEKSPEALPNLDFKIMQGNSLLEQYKGVDLSTEGHHHHHH
- soluble on expression in E. coli: not soluble

Sequence: MVKSIVILIETVTMKIPAVYSDGSFKTFNDSETTAQKLVDSGVVNTFAFGPTLVENGKVAVSENEEVGQDMADNPRTAIVVNEESDRSVHYIVIVSDGRTSESSGLTLYEMAELMKSYGVMTGYNLDVGDSSTMYSLEHHHHHH
- soluble on expression in E. coli: not soluble

Sequence: MSLEELLERVFSFSDVDKLIDFISYELQKPVILESADFFLLAYNSYYINHFDSANQQTIFSKKCPVQIFERFLKDGIIEKLKTEPEPFRVNKIESIGLNQRVVVSAKHKGEVMGYIWIQELDQNLTDEELDFLYETSFHVGKIIYKTNKLKQEKEEKAEDLIKRAIYQQFTSEKELRREAERINTVLPSMFSVVILHAANGDGEAVEDLKENIRSYLNLRDKVSHVLTIESNIVIVVASFSQKSSVSSAASEFINKLLTHFHFQKIPTPIYIGIGNEYNHLLKLGKSYTEALEVIKAAEITGNQENIPYEYAKLGIYRYLESIEQKNEFLEYENKDLALLKAKDEESSTELLKTLEVYLLNNCKTKPAAEQLFIHQNTLNYRIKQITEMTSIDLSDFRTRCQLYLDLMLMKKKEGGSHHHHHH
- soluble on expression in E. coli: soluble

Sequence: IPTKFVQKVTITKEGKKRVAPQLLTTLSA
- soluble on expression in E. coli: soluble

Sequence: MHSDEEIFKDTTTKALLQLLKKDIDFHEYCYQEIFPRGKEIKMNDNKNFKIYLVESGYFAYCLKNEYGDFGIISFVGGEIAINLIPLIKEEPEDAFLRCLTQVRCWVLDPDFVGRVLDENNQKAKFLLSNLLYTRKVYFKASKRTFMKKELRIRACLKEIGLYMGRVTKDKDFILPDEINNSILAQYANTTREYTNIIVLKLRKEGILDDSHKPWVIKKIDEL
- soluble on expression in E. coli: not soluble

Sequence: MGSDKIHHHHHHMTKRILEVNVDDNGYSGVYSLIKRVIENKPADYQIDLACLEPFESQQNIDYLNKLGTQVYYIGYPGNKIKKQLKYYEKLQKVVKDGNYDYVHIHGDVANKLYVTALAARKADSGVKIILQSHASDVDGSHRQLKRFIHKSLRGKLVKLADCYVSVSDLASNWMFPSIPKSQVIKIMNGVDLAAFRYDPIIRKRIRKELGLSRKHVLGHIGRFAYQKNHQYLIQVFAKVYAQDPQARLLLVGKGDLQDECKHQVHDLGLDKQVIFYGLSSNTSELFQAMDVFLLPSHFEGLPIVGVEAQAAGLPVIFSDQITSEAKMTNNVSFLPIDETSLSAWQSQVIKDLELGHRDDYDLLSRQKLDITDTVAAFMKLYNS
- soluble on expression in E. coli: not soluble

Sequence: MSRYCSECGKARKACLCPSIVALESAVELIILQHPTEQKRPLGTARILSLSLANCRLLVGEDFREHDELNQLLAEPDVDYYVLYPNEHAQECTKISLTTARKTRVILLDGTWKKAYKMWQINTQLHDLPSLHLPDECVGHYRIRKAPDDTALSTVEAGYHLLQQWQPERDFSPLLKVFDAMIQYQIDQMPEGVFERNYRQLEHHHHHH
- soluble on expression in E. coli: not soluble

Sequence: MGSDKIHHHHHHAADPVVVPANMEPLTIEGNRFVTLCIMIRTTPWEVSRDVKLHPRDEVDWHTLEGVRALREAFATNNPNGRLTWGFTMNALEDGRKNYREIRDYVVECQKKYGDEVTYFPGYFPAMYLPRERVNREMSEAIEIISKMVGNGYRPQSIMGGFLSADNLRYLAEKENIHVAHAVIWSQHNIDGGGADGSPSYPFYPSTEHFCKPAQGKSDFIDCVNLDGWTMDFICARRSGQTGHGIDGYNSRRGVGPIETYKGWGLDLGHREVMHTEAIHFDKGLELNGFGWVANIWEAQMVHEFGKDLICDAMKMWVTGTKERWPDTHFVTFGEFGELWRKQYKSNDDWNYRFVERGSGLGDSYNNLEIKWFMNKEFRLALLRDWHTKNSPAYVIDFTRYDLQAHEPADPSPEKPAKDWSLINKINQKALRPQDKPVLIDKLEKEDQDLIRKYYPELLK
- soluble on expression in E. coli: not soluble

Sequence: MSLSSVKDFPKIKAIRSFIIGGVGSGGDYHNVKGGHWLIDSDISTPASKWEQYKKSRTSWGINVLGSFLVEIEATDGTVGFATGFGGPPACWLVHQHFERFLIGADPRNTNLLFEQMYRASMFYGRKGLPIAVISVIDLALWDLLGKVRNEPVYRLIGGATKERLDFYCTGPEPTAAKAMGFWGGKVPLPFCPDDGHEGLRKNVEFLRKHREAVGPDFPIMVDCYMSLNVSYTIELVKACLDLNINWWEECLSPDDTDGFALIKRAHPTVKFTTGEHEYSRYGFRKLVEGRNLDIIQPDVMWLGGLTELLKVAALAAAYDVPVVPHASGPYSYHFQISQPNTPFQEYLANSPDGKSVLPVFGDLFIDEPIPTKGYLTTADLDKPGFGLTINPAARAKLIPSDYLFKVPEIPQNLSTGKEIKSNEQPDKPNGTLDSLAAKVESLTTSTSSEGHHHHHH
- soluble on expression in E. coli: soluble

Sequence: MTALETQLTEIVEKEQGQKIIPFLQKLTQEERESLIPCLSRLEEYYNKFVQLEERTYGTRATSGQHHIIDLAALVIFPLKEFRKHEWGINTAHLNEIAAWHIPTWLDSYFVEGEGKEFGGFYNMDYEILMDWIERGILTISPSPQTIAGYLVNYIHTTPVLEKRDITINEHIWYLFEYDCGQNWHANPAKGYPYYTFQHFTENGKLDRMRVLKESLLAINRNFNKNLCSWFAGMFTALSPSVEEQLTLQPEMLAALSSPHSRPINIILGLLKNLCSHPRFLTDDFLDQTTVLFASDVKAVHQNTLGVLSKLAKEKKEYRDTICCAAAQGLMSRDESTQNKIVKLIQTFGETESPTLKEALSAYAETMLTSTKKELAAYLKDNVSDALSTDKVLLTTLDEQASVASFDYEPMPPILREDNRIQEITSIEDLIFLASQILDSNELYHFDLFLNALVEWNEQLEAKHITQWTPVLQRAYKLLINGGSSRNGILDSMMATFLIDYAKLLIKRFPVEAKELSTLHEKMVQKDELQKGQWRYRNLQRITIRQKSNKRTEFPIHKQLLYRTLDLLESNENRLPMLSTPTHMPAFIDPIVLIKRLGQYQQANAEPDDIDMQIALSRMALNNYPSQDFPTVLQELKGEYQSLFSFLIGAKDAVPQAPFAHPSWWMTAGLIKSPETVYTEFKDFSYSKSSREFLTGNFSWWTFQTPHSYTDYHNKVVNWTSSTLSFNVPEGENIHIVNKGKYDERVSYHSYDPHPLLVEMYSQIERYDDIQNDLPRLVWLAPNTPEPLFVWCIRCAIYDPMLNEVREVGITQATIEALHQLRHEWHETSYLLEASCMLVADKTSRSYAAGIWTDRVNTGCIDSARIGRILGSHQRTGWGPLKRLTDLIQQQMINVSPLHNRELELLLTSLIAELPEQPVKELKKLLEIYSELLSVNNSRVTDERILQLLEIWKNTANLKKVIVSINR
- soluble on expression in E. coli: not soluble

Sequence: MGSSHHHHHHSSGLVPRGSHMMEVGFLGLGIMGKAMSMNLLKNGFKVTVWNRTLSKCDELVEHGASVCESPAEVIKKCKYTIAMLSDPCAALSVVFDKGGVLEQICEGKGYIDMSTVDAETSLKINEAITGKGGRFVEGPVSGSKKPAEDGQLIILAAGDKALFEESIPAFDVLGKRSFYLGQVGNGAKMKLIVNMIMGSMMNAFSEGLVLADKSGLSSDTLLDILDLGAMTNPMFKGKGPSMNKSSYPPAFPLKHQQKDMRLALALGDENAVSMPVAAAANEAFKKARSLGLGDLDFSAVIEAVKFSRE
- soluble on expression in E. coli: soluble

Sequence: MPVKIPDHLPAAGILESENIFVMSETRAANQDIRPMKVLILNLMPNKIETETQLLRLLGNTPLQVDVDLLRIHDKESKHTSIDHMNTFYRDFEDVRHKNYDGLIITGAPLGQIDFEDVTYWDHIREIIDWSQQHVTSVLFLCWAAHAGLYHLYGLNRKILEQKRSGVFVHRRTCQHFPLLRGFDDEFFAPHSRFAEMDVEEIRQHPQLQLLAESDEAGAYLVLSRNNRNLFVMGHPEYQKSTLNDEYHRDLAQSLNPNVPQNYYRNDDPKADAIARWHSHGSLLVSNWLNYYVYQLTPYDLSDMTAMTPWESQMAGDPLEHHHHHH
- soluble on expression in E. coli: soluble

Sequence: MELNWALFYGLCPSIKMAHVFDKDEIMGLFESFRKARAKTKAEIKAAKVKARQEVKDATKLEIKRNKLLAQQEKALLKEERKGLKAKRKHEEKLAKTTLEQLKAGKFNKDNVLRYAGAARTLAPIVLPLIYRGITLAKEQANTKRALRLGIDPSDLARFAGHGAELKARIEGIRGSVKVSSLPKGFVADVEQRLDDLTFAVDNAEYMTPELRQRSHRSIANDLDQLARQIQDKIGE
- soluble on expression in E. coli: not soluble

Sequence: MGSDKIHHHHHHMMQSAAINRRSFVKAAGLGFLATLTPRSLMALERADAVYASGIRAADGSFAIATVTERGEIVDQVALPARAHGIAFSASTGKTVAFARRPGTYAMIFDPWNKSEPIVISSREDRHFYGHGAFSPDGRLLYASENDFDGNRGMIGLYDATDRFTRIGEFETYGIGPHDMTVSDDGRLLIVANGGIETHPDFGRTKLNLGEMQPSLALIDAATGALVEKHVLPAEWAELSTRHVDLDGAGRIWFACQYEGHRKDLPPLVGHFAKGEDLSFIDLPEETTRRLANYVGAIAVNRSEGLVGITSPKGGASVTIDARTGKMLAETSVPDAAGIAPARNGFAVSSYDGDFLSTRSDVAWDQHIVRI
- soluble on expression in E. coli: not soluble

Sequence: MTKQQKGFVTGQPTGALNLSDILDSEELGEYHLMSAAIITGNTVDFSGLGAGPDDPFEIASITKIFTGELLRLQIERGEITESTAVGDVLGERVADSLIRDITVEELANHTSGLPRLGNVGLRPFMATFFDKNPYKDLSADRVISISTTSKLNSRGEFHYSNLGFALLGQVLARNAGLTFDQLLDRDLLAPLNLNNTKLMTPESLAQDAPQGFSTPGKQVEAWEMDGFLPAAGLRSTARDMAVFCQYLFTKGPAPFTWQSLESAPEIVWHNGESFGYSSVLFFNTATTTAIFVAADVATSVFPIGHELLMANSTRQESKLEHHHHHH
- soluble on expression in E. coli: not soluble

Sequence: MGSDKIHHHHHHMYIEEIKRVLSDQRDVLEEKMSRKLVERDVPNLLKYLEVPNALAILGVRRSGKSTLSLLLLKRKKFAYVNFDDERFYNLNIGDLNKVLQAIYELYGVDVDYIVLDEIHNVKGWELFVSRLRDVKKLIITGSNSKMLSGELATYLTGRHSDYILFPFSFQEYLKYKEVKVEYFSTRVISTLKNELEKYTEVGGFPEALMLGKEQVNVIYNDILFKDIVSRYKIREIEKFREFARTVISYYSNEISLSSIAKILGLNKRTVEKWASGLREAYLTFFIPRYGEKLKQRLTYNKKVYVVDVGIVSNLAIKGKDKGRIIENLVAIKLLRELQGEEKLYYMRNNYEVDFYDEKNSRLIQVTYTSDKIENREIRGLIEGYRLTKAKKLLIITWDLEEKIQVEGVNIEVLPLYRFLLE
- soluble on expression in E. coli: not soluble

Sequence: SGDKPPGFRGSRDWIGCVEASLCLAHFGGPQGRLCHVPRGVGLHGEVERLYSHFAGGGGPVMVGGDADARSKALLGVCVGSGTEAYVLVLDPHYWGTPKSPSELQAAGWVGWQEVSAAFDPNSFYNLCLTSLSSQQQQRTLD
- soluble on expression in E. coli: soluble

— the DeepSol protein solubility set
